Experimental data taken from the supplement of paper PMC9112550, “Optimization of the antimicrobial peptide Bac7 by deep mutational scanning” (BMC Biology, 2022).

test system: Escherichia coli TOP10; assay: shrunken log2 fold change of peptide-encoding DNA abundance (4.5 h post-induction vs induction); higher = less antimicrobial activity (less host growth inhibition); details: time post-induction: 4.5 h; library: site-saturation at positions 5, 18, 19, 20
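Note: peptides expressed intracellularly from a pBAD plasmid library in pooled LB shake-flask culture, induced with 0.3% L-arabinose, DNA abundance read by NGS, three biological replicates, DESeq2 with apeglm shrinkage.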

RRIRARPPRLPRPRPRPCGSPRP and RRIRERPPRLPRPRPRPQICPRP are within 0.2 log units of each other in “shrunken log2 fold change” value: -0.0125 for the first, 0.172 for the second.

RRIRTRPPRLPRPRPRPGLHPRP and RRIRSRPPRLPRPRPRPLLSPRP are within 0.2 log units of each other in “shrunken log2 fold change” value: -0.102 for the first, -0.051 for the second.

Compared with RRIRLRPPRLPRPRPRPPNAPRP, RRIRHRPPRLPRPRPRPIICPRP is lower in “shrunken log2 fold change” value: 0.121 for the first, -0.168 for the second.

First: RRIRVRPPRLPRPRPRPLESPRP
Second: RRIRTRPPRLPRPRPRPYINPRP
The “shrunken log2 fold change” value of the first is higher: 0.114 for the first, -0.879 for the second.

Compared with RRIRDRPPRLPRPRPRPIHKPRP, RRIRPRPPRLPRPRPRPHVEPRP is higher in “shrunken log2 fold change” value: -0.275 for the first, 0.107 for the second.

First: RRIRMRPPRLPRPRPRPVYYPRP
Second: RRIRLRPPRLPRPRPRPLALPRP
The “shrunken log2 fold change” value of the first is higher: -0.123 for the first, -0.438 for the second.

Going from RRIRYRPPRLPRPRPRPNPDPRP to RRIRWRPPRLPRPRPRPTVIPRP, the “shrunken log2 fold change” value rises from -0.407 to 0.0385.

Compared with RRIRKRPPRLPRPRPRPSMHPRP, RRIRMRPPRLPRPRPRPPHVPRP is higher in “shrunken log2 fold change” value: 0.401 for the first, 0.865 for the second.

RRIRLRPPRLPRPRPRPHDWPRP and RRIRSRPPRLPRPRPRPVKHPRP are within 0.2 log units of each other in “shrunken log2 fold change” value: 0.184 for the first, 0.124 for the second.

Going from RRIRVRPPRLPRPRPRPGQEPRP to RRIRARPPRLPRPRPRPMNEPRP, the “shrunken log2 fold change” value rises from 0.0329 to 0.374.

Compared with RRIRIRPPRLPRPRPRPGKYPRP, RRIRSRPPRLPRPRPRPGWIPRP is higher in “shrunken log2 fold change” value: -0.394 for the first, 0.0994 for the second.

Compared with RRIRFRPPRLPRPRPRPHSIPRP, RRIRVRPPRLPRPRPRPGEHPRP is higher in “shrunken log2 fold change” value: -0.248 for the first, -0.035 for the second.

First: RRIRQRPPRLPRPRPRPPDIPRP
Second: RRIRTRPPRLPRPRPRPKYNPRP
The “shrunken log2 fold change” value of the first is higher: -0.0497 for the first, -0.81 for the second.

First: RRIRPRPPRLPRPRPRPYLLPRP
Second: RRIRARPPRLPRPRPRPYEQPRP
The “shrunken log2 fold change” value of the first is lower: -1.57 for the first, 0.0674 for the second.

RRIRMRPPRLPRPRPRPYPPPRP and RRIRFRPPRLPRPRPRPTRLPRP are within 0.2 log units of each other in “shrunken log2 fold change” value: 0.133 for the first, 0.08 for the second.

Compared with RRIRNRPPRLPRPRPRPYAEPRP, RRIRERPPRLPRPRPRPVASPRP is higher in “shrunken log2 fold change” value: -0.525 for the first, -0.0471 for the second.

Going from RRIRHRPPRLPRPRPRPCPFPRP to RRIRTRPPRLPRPRPRPIYKPRP, the “shrunken log2 fold change” value falls from -0.654 to -1.02.

Going from RRIRWRPPRLPRPRPRPEKSPRP to RRIRIRPPRLPRPRPRPDRHPRP, the “shrunken log2 fold change” value falls from 0.486 to -0.504.

RRIRPRPPRLPRPRPRPTYVPRP and RRIRERPPRLPRPRPRPLADPRP are within 0.2 log units of each other in “shrunken log2 fold change” value: 0.0486 for the first, -0.14 for the second.

Compared with RRIRGRPPRLPRPRPRPPHWPRP, RRIRDRPPRLPRPRPRPCDWPRP is lower in “shrunken log2 fold change” value: 0.96 for the first, 0.0416 for the second.

Going from RRIRQRPPRLPRPRPRPAWQPRP to RRIRSRPPRLPRPRPRPNKLPRP, the “shrunken log2 fold change” value falls from 0.147 to -0.643.

Going from RRIRIRPPRLPRPRPRPWGKPRP to RRIRHRPPRLPRPRPRPGATPRP, the “shrunken log2 fold change” value rises from -0.814 to 0.0387.

RRIRFRPPRLPRPRPRPECKPRP and RRIRRRPPRLPRPRPRPWCMPRP are within 0.2 log units of each other in “shrunken log2 fold change” value: -0.0133 for the first, -0.107 for the second.

First: RRIRSRPPRLPRPRPRPLVDPRP
Second: RRIRGRPPRLPRPRPRPDGMPRP
The “shrunken log2 fold change” value of the first is lower: 0.115 for the first, 0.86 for the second.

RRIRKRPPRLPRPRPRPIEPPRP and RRIRPRPPRLPRPRPRPRLYPRP are within 0.2 log units of each other in “shrunken log2 fold change” value: 0.0245 for the first, 0.127 for the second.

First: RRIRVRPPRLPRPRPRPLWTPRP
Second: RRIRFRPPRLPRPRPRPHNWPRP
The “shrunken log2 fold change” value of the first is higher: 0.0846 for the first, -0.122 for the second.

Going from RRIRIRPPRLPRPRPRPENPPRP to RRIRLRPPRLPRPRPRPKISPRP, the “shrunken log2 fold change” value rises from -0.695 to -0.0626.

RRIRKRPPRLPRPRPRPKASPRP and RRIRYRPPRLPRPRPRPDDGPRP are within 0.2 log units of each other in “shrunken log2 fold change” value: 0.0517 for the first, 0.0672 for the second.

RRIRKRPPRLPRPRPRPTILPRP and RRIRWRPPRLPRPRPRPHLPPRP are within 0.2 log units of each other in “shrunken log2 fold change” value: -0.0105 for the first, -0.166 for the second.

Going from RRIRCRPPRLPRPRPRPAAWPRP to RRIRLRPPRLPRPRPRPIYCPRP, the “shrunken log2 fold change” value falls from 0.252 to -0.527.

Compared with RRIRCRPPRLPRPRPRPYPRPRP, RRIRGRPPRLPRPRPRPWFTPRP is lower in “shrunken log2 fold change” value: -0.00439 for the first, -0.221 for the second.

Compared with RRIRDRPPRLPRPRPRPMLTPRP, RRIRMRPPRLPRPRPRPRFRPRP is higher in “shrunken log2 fold change” value: 0.155 for the first, 0.784 for the second.

RRIRGRPPRLPRPRPRPAMIPRP and RRIRARPPRLPRPRPRPCELPRP are within 0.2 log units of each other in “shrunken log2 fold change” value: 0.2 for the first, 0.105 for the second.

Going from RRIRARPPRLPRPRPRPEIIPRP to RRIRERPPRLPRPRPRPLPAPRP, the “shrunken log2 fold change” value falls from 0.396 to 0.065.

RRIRTRPPRLPRPRPRPPTMPRP and RRIRPRPPRLPRPRPRPCSNPRP are within 0.2 log units of each other in “shrunken log2 fold change” value: -0.0279 for the first, 0.137 for the second.

Going from RRIRNRPPRLPRPRPRPPFEPRP to RRIRCRPPRLPRPRPRPQILPRP, the “shrunken log2 fold change” value falls from 0.128 to -0.354.

Compared with RRIRGRPPRLPRPRPRPWIKPRP, RRIRGRPPRLPRPRPRPDWTPRP is higher in “shrunken log2 fold change” value: -0.0249 for the first, 0.316 for the second.

With RRIRERPPRLPRPRPRPLTNPRP the “shrunken log2 fold change” value was -0.242.
